Experimental data: publication PMC9899272, “An engineered variant of MECR reductase reveals indispensability of long-chain acyl-ACPs for mitochondrial respiration” (Nature Communications, 2023)

Experiments:
[1] = biological target: the molecule itself; assay: crystal structure; sitting drop vapor diffusion at +4 °C, 16.82% PEG 6000, 1 M NaCl, 100 mM acetic acid, pH 4.5; trigonal space group P3(1)21; one chain in the asymmetric unit, dimer via a crystallographic 2-fold axis
[2] = substrate: CCCCC/C=C/C(=O)SCCNC(=O)CCNC(=O)[C@H](O)C(C)(C)COP(=O)(O)OP(=O)(O)OC[C@H]1O[C@@H](n2cnc3c(N)ncnc32)[C@H](O)[C@@H]1OP(=O)(O)O; assay: spectrophotometric 2E-enoyl-CoA reductase assay, Michaelis-Menten fit; assay type: biochemical, Homo sapiens; details: 125 µM NADPH, 100 µg bovine serum albumin, 50 mM potassium phosphate pH 7.5, 25 °C
Source text: (§1) spectrophotometric 2E-enoyl-CoA reductase assay, Michaelis-Menten fit on MECR

[3] = substrate: CCC/C=C/C(=O)SCCNC(=O)CCNC(=O)[C@H](O)C(C)(C)COP(=O)(O)OP(=O)(O)OC[C@H]1O[C@@H](n2cnc3c(N)ncnc32)[C@H](O)[C@@H]1OP(=O)(O)O; assay: as above; assay type: biochemical, Homo sapiens; details: 125 µM NADPH, 100 µg bovine serum albumin, 50 mM potassium phosphate pH 7.5, 25 °C
Source text: as §1

[4] = substrate: CCCCCCC/C=C/C(=O)SCCNC(=O)CCNC(=O)[C@H](O)C(C)(C)COP(=O)(O)OP(=O)(O)OC[C@H]1O[C@@H](n2cnc3c(N)ncnc32)[C@H](O)[C@@H]1OP(=O)(O)O; assay: as above; assay type: biochemical, Homo sapiens; details: 125 µM NADPH, 100 µg bovine serum albumin, 50 mM potassium phosphate pH 7.5, 25 °C
Source text: as §1

Protein | stoichiometry N [1] | Km [2] [µM] | kcat [2] [s⁻¹] | kcat/Km [2] [M⁻¹ s⁻¹] | Km [3] [µM] | kcat [3] [s⁻¹] | kcat/Km [3] [M⁻¹ s⁻¹] | Km [4] [µM] | kcat [4] [s⁻¹] | kcat/Km [4] [M⁻¹ s⁻¹]
wild-type human MECR (2E-enoyl-ACP reductase) with C-terminal His-tag (enzyme, UniProt Q9BV79 31-373, looked up, the first N-terminal residues of the crystallised protein are A31-A41 (not defined in the maps); the C-terminus is seen till L374, followed by the six-residue His-tag; L374 lies beyond M373, the last visible residue of the earlier structures, and is probably a vector residue before the His-tag; also called wild-type MECR; MECR WT; source: E. coli BL 21 Star (DE3) pLysS, purified (Ni-NTA, …)) ASSYSASAEPARVRALVYGHHGDPAKVVELKNLELAAVRGSDVRVKMLAAPINPSDINMIQGNYGFLPELPAVGGNEGVAQVVAVGSNVTGLKPGDWVIPANAGLGTWRTEAVFSEEALIQVPSDIPLQSAATLGVNPCTAYRMLMDFEQLQPGDSVIQNASNSGVGQAVIQIAAALGLRTINVVRDRPDIQKLSDRLKSLGAEHVITEEELRRPEMKNFFKDMPQPRLALNCVGGKSSTELLRQLARGGTMVTYGGMAKQPVVASVSLLIFKDLKLRGFWLSQWKKDHSPDQFKELILTLCDLIRRGQLTAPACSQVPLQDYQSALEASMKPFISSKQILTM | 2 | 23.2 ± 5.4 | 1.8 ± 0.13 | 80000 | 90.6 ± 26.5 | 0.99 ± 0.22 | 10000 | 15.9 ± 2.2 | 0.62 ± 0.02 | 40000
MECR G165Q variant with C-terminal His-tag (enzyme, human, UniProt Q9BV79 31-373, looked up, the first N-terminal residues of the crystallised protein are A31-A41 (not defined in the maps); the C-terminus is seen till L374, followed by the six-residue His-tag; L374 is probably a vector residue before the His-tag; also called G165Q MECR; G165Q mutant; source: E. coli BL 21 Star (DE3) pLysS, purified (Ni-NTA, size-exclusion chromatography); not shown: His6, C-terminal, kept) ASSYSASAEPARVRALVYGHHGDPAKVVELKNLELAAVRGSDVRVKMLAAPINPSDINMIQGNYGFLPELPAVGGNEGVAQVVAVGSNVTGLKPGDWVIPANAGLGTWRTEAVFSEEALIQVPSDIPLQSAATLQVNPCTAYRMLMDFEQLQPGDSVIQNASNSGVGQAVIQIAAALGLRTINVVRDRPDIQKLSDRLKSLGAEHVITEEELRRPEMKNFFKDMPQPRLALNCVGGKSSTELLRQLARGGTMVTYGGMAKQPVVASVSLLIFKDLKLRGFWLSQWKKDHSPDQFKELILTLCDLIRRGQLTAPACSQVPLQDYQSALEASMKPFISSKQILTM | 2 | 114.1 ± 16.2 | 12.4 ± 1.9 | 110000 | 111.2 ± 17.3 | 3.49 ± 0.33 | 30000 | 8.15 ± 1.54 | 0.3 ± 0.02 | 40000
